Data reported in article PMC7000413, “CDX-301: a novel medical countermeasure for hematopoietic acute radiation syndrome in mice” (Scientific Reports, 2020).

Target: the molecule itself
Test: SEC; size exclusion chromatography of purified CDX-301; apparent molecular weight approximately 44,000 Daltons; conditions not given

B1: CDX-301, soluble recombinant human Fms-related tyrosine kinase 3 ligand (Flt3L) (ligand)
chain: TQDCSFQHSPISSDFAVKIRELSDYLLQDYPVTVASNLQDEELCGGLWRLVLAQRWMERLKTVAGSKMQGLLERVNTEIHFVTKCAFQPPPSCLRFVQTNISRLLQETSEQLVALKPWITRQNFSRCLELQCQPDSSTLPPPWSPRPLEATAP
modifications: glycoprotein with 2 potential N-linked (N100, N123) and 5 potential O-linked (S136, S137, T138, S144, T151) glycosylation sites; 3 intramolecular disulfide bonds
notes: human Flt3 ligand, the 153 N-terminal amino acids of the extracellular domain; 3 C-terminal residues of the extracellular domain, the transmembrane domain and the cytoplasmic domain eliminated; mature, secreted protein of 153 amino acids. numbers count on: the mature protein; Non-covalent homodimer; also called rhuFlt3L; Flt3 Ligand; source: manufactured under cGMPs by Celldex Therapeutics
  stoichiometry N: 2
